Results: patent US20250052767A1 (BIOLEGEND, published 2025)
Residue numbers refer to the chain shown, from its start.

B1: exemplary anti-CD28 antibody AB3 (antibody, V domains shown)
VH: KVQLQQSGAGLVKPGASVKLSCKTSGYTFSDYIINWVKQRSGQGLEWIGWFYPGSGSINYNEKFKDKATLTADKSSSTVYMDLSRLTSEDSAVYFCARREDRGGYDAFDYWGQGTTLTVSS
VL: DIQMTQSPASLSVSVGETVTITCRASENIYSNLAWYQQKQGKSPQLLVYAATKLADGVPSRFSGSGSGTQYSLRINSLQSEDFGSYYCQHFWGTPWTFGGGTKLEIK
notes: Mouse hybridoma monoclonal antibody; Conjugated to PE in the staining assays; also called antibody 3; clone 3
B2: exemplary anti-CD28 antibody AB6 (antibody, V domains shown)
VH: B1 VH
VL: B1 VL
notes: Mouse hybridoma monoclonal antibody; Conjugated to PE in the staining assays; also called antibody 6; clone 6
B3: exemplary anti-CD28 antibody AB4 (antibody, V domains shown)
VH: EVQLQQSGPELEKPGASVKMSCKASGYSFTDYNMNWVKQSNGKSLEWIGIIDPYYGATTYNQRFKGKATLTVDKSSSTAYMQLKSLTSEDSAVYYCARFGFYGAMDYWGQGISVTVSS
VL: B1 VL
notes: Mouse hybridoma monoclonal antibody; Conjugated to PE in the staining assays; also called antibody 4; clone 4
B4: exemplary anti-CD28 antibody AB1 (antibody, V domains shown)
VH: QVHLQQSATELARPGASVKMSCKASGYTFTSYTMHWVKQRPGQGLEWIGYIDPGSGYSEFNHKFKDKSTLTADKSSSTAYMQLISLTSEDSAVYYCARRQDNSGYDSFDYWGQGTTLTVSS
VL: B1 VL with A25T, K53N, P59S, T69I, R74K, T94I
notes: Mouse hybridoma monoclonal antibody; also called antibody 1; clone 1
B5: exemplary anti-CD28 antibody AB7 (antibody, V domains shown)
VH: B1 VH with T24A
VL: B1 VL with A25T, S80P
notes: Mouse hybridoma monoclonal antibody; Conjugated to PE in the staining assays; also called antibody 7; clone 7
B6: exemplary anti-CD28 antibody AB5 (antibody, V domains shown)
VH: B3 VH
VL: DVVVTQTPLSLPVSFGDQVSISCRSSQSLANSFGNTYLSWYLHKPGQSPQLLIYGISNRFSGVPDRFSGSGSGTDFTLKISTIKPEDLGVYYCLQGTHQPFTFGSGTTLELK
notes: Mouse hybridoma monoclonal antibody; Conjugated to PE in the staining assays; also called antibody 5; clone 5
B7: exemplary anti-CD28 antibody AB2 (antibody, V domains shown)
VH: QVQLQQPGSELMRPGASVKLSCKASGYTFTSYWMHWVKQRHGQGLEWIGNIYPGSGRTIYDEKFKSKATLTVDTSSSTAYMHLSSLTSEDSAVFYCTRSHYGSSFDAMDYWGQGTSVTVSS
VL: DIQVNQSPSSLSASLGDTITITCHASQNIYVWLNWYQQKPGNIPKLLIYKASNLHTGVPSRFSGSGSGTGFTLTISSLQPEDIATYYCQQGQSYPWTFGGGTKLEIK
notes: Mouse hybridoma monoclonal antibody; also called antibody 2; clone 2
B8: exemplary anti-CD28 antibody AB8 (antibody, V domains shown)
VH: EVKLVESGGGLVQPGGSLKLSCAASGFTFSSYTMSWVRQTPEKRLEWVAYISNGGGTTYYPDTVKGRFTISRDNAKNTLYLQMSSLKSEDTAVYYCARHRPYDYDVLDYWGQGTTLTVSS
VL: DIVMTQSQKFMSTSVGDRVSITCKASQIVGTDVAWYQQKPGQSPKILIFSASNRYTGVPDRFTGSGSGTDFTLTISNMQSEDLADYFCHQYSRYPYTFGGGTKLEIK
notes: Mouse hybridoma monoclonal antibody; Conjugated to PE in the staining assays; also called antibody 8; clone 8

These binders were tested against T1, human CD28 (human, UniProt P10747 19-220, On cells CD28 is a disulfide linked homodimer and a glycoprotein; one copy of the chain is given.) (assay: cell-based or functional assay).
T1 sequence (P10747 19-220 limits assumed): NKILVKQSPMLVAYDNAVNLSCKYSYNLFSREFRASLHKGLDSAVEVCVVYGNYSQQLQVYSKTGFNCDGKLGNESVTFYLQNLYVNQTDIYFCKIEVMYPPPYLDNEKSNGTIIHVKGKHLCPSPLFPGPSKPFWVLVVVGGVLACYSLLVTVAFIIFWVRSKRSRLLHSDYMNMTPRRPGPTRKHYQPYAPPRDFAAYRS

Division Index (with anti-CD3 UCHT1) | Expansion Index (with anti-CD3 UCHT1) | Percent Divided (CFSE T cell division, with plate-coated anti-CD3 UCHT1) | Binder
1.08 | 5.11 | 55.7% | B1
1.32 | 6.04 | 65.8% | B2
1.08 | 5.07 | 53.8% | B3
0.8 | 4.03 | 42% | B4
0.96 | 4.82 | 48% | B5
1.17 | 5.39 | 60.5% | B6
0.99 | 4.56 | 44% | B7
0.76 | 3.51 | 40% | B8

The binders below were run against T1, human CD28 (assay: flow cytometry, Ba/F3-human CD28 cells pre-incubated with 70 ug antibody, then 1 ug biotinylated recombinant CD86 (competitor) + labelled streptavidin).
Description: After 15 minutes of incubation and wash, cells were incubated with PE-conjugated streptavidin. Data were acquired on a BD Canto II, and analyzed using FlowJo software.
This value was subtracted from 100 to get a reduction percentage.

% Reduction (of CD86 binding) | MFI (of CD86 binding after antibody pre-incubation) | Binder
90.4% | 796 | B1
91.1% | 741 | B2
92.1% | 657 | B3
91.1% | 736 | B4
88.5% | 955 | B5
91.9% | 668 | B6
91.4% | 714 | B7
88.8% | 925 | B8

What follows are binders tested against T1, human CD28 (assay: flow cytometry, PE-conjugated antibody on un-fixed human peripheral blood cells).
Description: (§1) Cells were left either un-fixed or were fixed with 4% PFA for 15 minutes and washed with PBS to remove PFA. Cells were then counted and adjusted in Cell Staining Buffer and stained with exemplary anti-CD28 antibodies conjugated to PE for 30 minutes in the dark. […] Data were acquired on a BD Canto II instrument, and analyzed by FlowJo.

S/N on un-fixed cells | Binder
133 | B1
128 | B2
75.4 | B3
89.2 | B4
130 | B5
94.5 | B6
89 | B7
30.9 | B8

Each binder was assayed against T1, human CD28 (assay: flow cytometry, PE-conjugated antibody on 4% PFA-fixed human peripheral blood cells).
Description: as §1

S/N on fixed cells | Binder
101 | B1
101 | B2
57.7 | B3
61.6 | B4
108 | B5
63.3 | B6
50.1 | B7
24.6 | B8

What follows are binders tested against T1, human CD28 (assay: flow cytometry, PE-conjugated antibody on fresh human peripheral blood cells, CD3/CD28 gating).
Excerpt: Cells were lysed with RBC lysis buffer, washed, and resuspended in Fluorofix solution (containing 1% PFA). Data were acquired on a BD Canto II instrument, and analyzed by FlowJo. […] A histogram was generated of each cell population to quantify median fluorescence intensity (MFI), and the MFI of each exemplary antibody and respective control was used to calculate the signal to noise (S:N) ratio (Table E2).

% CD28+ population | MFI CD28+ population | S/N Ratio | Binder
65.7% | 15600 | 260 | B1
66% | 15500 | 249 | B2
64.9% | 11900 | 193 | B3
64.8% | 12600 | 212 | B4
64.8% | 16200 | 249 | B5
64.7% | 12500 | 195 | B6
64.2% | 13100 | 207 | B7
65% | 5210 | 83.2 | B8

Target: T1, human CD28
Assay: cell-based or functional assay
Remark: another data set of the same source

Division Index (no anti-CD3) | Expansion Index (no anti-CD3) | Percent Divided (CFSE T cell division, no anti-CD3) | Binder
0.0056 | 1.01 | 0.32% | B1
0.0047 | 1.01 | 0.33% | B2
0.0002 | 1 | 0.0091% | B3
0.0072 | 1.01 | 0.58% | B4
0.014 | 1.03 | 0.47% | B5
0.0082 | 1.01 | 0.64% | B6
1.49 | 6.13 | 65.4% | B7
0.62 | 2.85 | 30.7% | B8
